Measured values: publication PMC8590011, “WRN helicase safeguards deprotected replication forks in BRCA2-mutated cancer cells”

Target: FLAG-WRN (wild type) (UniProt Q14191 1-1432)
Test: EMSA; 2 mM ATPgS, 5 mM MgCl2; affinity similar to the K577M/E84A mutant; Kd is only in Supp Fig 1e, value not in material; 35 mM Tris-HCl pH 7.5, 20 mM KCl, 5 mM MgCl2, 0.1 mg/ml BSA, 2 mM DTT, 5% glycerol, 2 mM ATPgS, 2 nM DNA, 15 min at RT; 5% 1x TBE native PAGE at 4 C
Details: protein: recombinant; tags: N-terminal FLAG (6xHis removed with TEV); label: 5' 32P on oligo B (as described for the CF preparation); four-strand regressed fork: AB partial duplex annealed to CD partial duplex

Sequence of FLAG-WRN (wild type) (Q14191 whole entry): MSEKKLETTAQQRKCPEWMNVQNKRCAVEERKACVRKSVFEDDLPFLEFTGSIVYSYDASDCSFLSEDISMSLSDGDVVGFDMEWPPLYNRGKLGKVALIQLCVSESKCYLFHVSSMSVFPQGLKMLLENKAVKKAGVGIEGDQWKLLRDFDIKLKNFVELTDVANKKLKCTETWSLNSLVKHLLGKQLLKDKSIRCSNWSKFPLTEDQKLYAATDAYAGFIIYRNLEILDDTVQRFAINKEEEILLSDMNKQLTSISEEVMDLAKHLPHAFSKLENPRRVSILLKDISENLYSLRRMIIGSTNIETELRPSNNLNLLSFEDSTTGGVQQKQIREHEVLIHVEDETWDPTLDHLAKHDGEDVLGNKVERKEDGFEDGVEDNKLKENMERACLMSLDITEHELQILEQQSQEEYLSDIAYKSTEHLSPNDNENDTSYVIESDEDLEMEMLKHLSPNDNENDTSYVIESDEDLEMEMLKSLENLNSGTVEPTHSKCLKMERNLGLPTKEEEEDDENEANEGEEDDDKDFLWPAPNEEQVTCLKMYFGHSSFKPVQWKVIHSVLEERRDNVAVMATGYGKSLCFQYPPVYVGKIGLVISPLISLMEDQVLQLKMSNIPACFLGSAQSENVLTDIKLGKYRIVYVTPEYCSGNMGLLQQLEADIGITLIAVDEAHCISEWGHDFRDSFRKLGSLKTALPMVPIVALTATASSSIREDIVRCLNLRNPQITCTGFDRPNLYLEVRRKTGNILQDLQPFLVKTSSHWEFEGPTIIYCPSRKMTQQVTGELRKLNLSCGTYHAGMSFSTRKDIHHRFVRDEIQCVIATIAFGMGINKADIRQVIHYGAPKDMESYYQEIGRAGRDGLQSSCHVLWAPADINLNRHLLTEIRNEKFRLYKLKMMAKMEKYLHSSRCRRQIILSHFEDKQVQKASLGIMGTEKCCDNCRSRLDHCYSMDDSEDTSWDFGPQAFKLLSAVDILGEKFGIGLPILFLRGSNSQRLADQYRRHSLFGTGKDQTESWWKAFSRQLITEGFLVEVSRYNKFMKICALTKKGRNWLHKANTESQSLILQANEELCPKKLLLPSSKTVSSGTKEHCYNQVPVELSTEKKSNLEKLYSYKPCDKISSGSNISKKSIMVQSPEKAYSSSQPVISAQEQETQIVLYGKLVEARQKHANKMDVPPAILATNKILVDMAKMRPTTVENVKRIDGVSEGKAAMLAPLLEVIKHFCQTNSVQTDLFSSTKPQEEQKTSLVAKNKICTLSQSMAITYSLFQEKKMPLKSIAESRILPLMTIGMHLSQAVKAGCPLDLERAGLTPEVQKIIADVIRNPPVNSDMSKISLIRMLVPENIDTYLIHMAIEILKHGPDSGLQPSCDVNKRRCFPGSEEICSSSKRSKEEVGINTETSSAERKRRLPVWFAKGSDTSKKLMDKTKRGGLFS

B1: chicken-foot (CF) reversed fork substrate, oligos A+B+C+D (structured_DNA)
DNA 1: CTTTAGCTGCATATTTACAACATGTTGACCTTCAGTACAATCTGCTCTGATGCCGCATAGTGTCATGCCAGAGCTTTGTAC
DNA 2: CGGGTGTCGGGGCGCATGACACTATGCGGCATCAGAGCAGATTGTACTGAAGGTCAACATGTTGTAAATATGCAGCTAAAG
DNA 3: GTACAAAGCTCTGGCATGATACTATGCGGCATCAGAGCAGATT
DNA 4: TCAGTACAATCTGCTCTGATGCCGCATAGTATCATGCGCCCCGACACCCG
modifications: iMe-isodC at position 38 of oligo A (written as C)
B1: binds.
